For experiment [1], the target named is T1, ULBP1-Fc (UniProt Q9BZM6 26-216).
T1 construct: Bought, R&D Systems; not shown: Fc part of the bought reagent
T1 sequence (looked up): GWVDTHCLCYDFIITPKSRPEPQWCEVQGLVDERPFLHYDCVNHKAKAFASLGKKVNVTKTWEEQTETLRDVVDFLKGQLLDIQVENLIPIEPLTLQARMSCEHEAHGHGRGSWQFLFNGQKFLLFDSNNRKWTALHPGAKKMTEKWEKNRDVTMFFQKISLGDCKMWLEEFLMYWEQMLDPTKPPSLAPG
Briefly: ELISA: ligand-Fc coated at 2 ug/ml, biotinylated NKG2D ectodomain titrated, streptavidin-HRP. For orientation: In an ELISA, binding on a coated surface is turned into a signal by an enzyme label.

The target in experiment [2] is T2, MICB-Fc (UniProt Q29980 23-298).
T2 construct: Bought, R&D Systems; not shown: Fc part of the bought reagent
T2 sequence (looked up): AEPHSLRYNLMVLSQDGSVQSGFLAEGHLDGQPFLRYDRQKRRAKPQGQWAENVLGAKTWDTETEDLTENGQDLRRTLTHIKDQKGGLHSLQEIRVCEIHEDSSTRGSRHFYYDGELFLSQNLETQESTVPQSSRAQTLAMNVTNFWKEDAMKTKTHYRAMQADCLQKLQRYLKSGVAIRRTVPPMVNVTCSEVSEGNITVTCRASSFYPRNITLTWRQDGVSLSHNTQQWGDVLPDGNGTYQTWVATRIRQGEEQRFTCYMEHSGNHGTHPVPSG
Described as above.

Experiment [3] deals with T3, ULBP3-Fc (UniProt Q9BZM4 30-217).
T3 construct: Bought, R&D Systems; not shown: Fc part of the bought reagent
T3 sequence (looked up): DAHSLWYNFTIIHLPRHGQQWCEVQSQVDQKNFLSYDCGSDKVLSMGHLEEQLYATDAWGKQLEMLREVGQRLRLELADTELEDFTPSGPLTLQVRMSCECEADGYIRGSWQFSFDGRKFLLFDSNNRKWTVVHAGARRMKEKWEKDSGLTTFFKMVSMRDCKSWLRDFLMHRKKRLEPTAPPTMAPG
The experiment is described as above.

The target in experiment [4] is T4, ULBP2-Fc (UniProt Q9BZM5 26-217).
T4 construct: Bought, R&D Systems; not shown: Fc part of the bought reagent
T4 sequence (looked up): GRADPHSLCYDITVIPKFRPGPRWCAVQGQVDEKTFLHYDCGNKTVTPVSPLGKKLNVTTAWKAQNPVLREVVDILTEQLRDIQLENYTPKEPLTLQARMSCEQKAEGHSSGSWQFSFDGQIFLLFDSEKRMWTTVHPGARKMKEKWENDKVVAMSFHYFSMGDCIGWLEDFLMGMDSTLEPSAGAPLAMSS
The experiment is described as above.

Experiment [5] has as its target MICwed-Fc. The description is as above.
For experiment [6], the target named is T5, ULBP4-Fc (UniProt Q8TD07 31-225).
T5 construct: Bought, R&D Systems; not shown: Fc part of the bought reagent
T5 sequence (looked up): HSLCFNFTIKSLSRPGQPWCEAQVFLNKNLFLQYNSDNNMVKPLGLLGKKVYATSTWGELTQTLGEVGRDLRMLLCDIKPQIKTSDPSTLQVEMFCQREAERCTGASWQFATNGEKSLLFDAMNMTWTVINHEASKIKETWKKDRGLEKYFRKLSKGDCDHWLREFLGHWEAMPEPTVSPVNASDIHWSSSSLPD
Nature of the experiment: plate ELISA: biotinylated natural NKG2D ectodomain titrated on coated ligand-Fc.

The target of experiment [7] is T5, ULBP4-Fc. Nature of the experiment: ELISA: ligand-Fc coated at 2 ug/ml, biotinylated NKG2D Y199A ectodomain titrated, streptavidin-HRP.
The target of experiment [8] is T6, MICA-Fc.
T6 construct: also called natural α1-α2-α3-Fc fusion
T6 chain: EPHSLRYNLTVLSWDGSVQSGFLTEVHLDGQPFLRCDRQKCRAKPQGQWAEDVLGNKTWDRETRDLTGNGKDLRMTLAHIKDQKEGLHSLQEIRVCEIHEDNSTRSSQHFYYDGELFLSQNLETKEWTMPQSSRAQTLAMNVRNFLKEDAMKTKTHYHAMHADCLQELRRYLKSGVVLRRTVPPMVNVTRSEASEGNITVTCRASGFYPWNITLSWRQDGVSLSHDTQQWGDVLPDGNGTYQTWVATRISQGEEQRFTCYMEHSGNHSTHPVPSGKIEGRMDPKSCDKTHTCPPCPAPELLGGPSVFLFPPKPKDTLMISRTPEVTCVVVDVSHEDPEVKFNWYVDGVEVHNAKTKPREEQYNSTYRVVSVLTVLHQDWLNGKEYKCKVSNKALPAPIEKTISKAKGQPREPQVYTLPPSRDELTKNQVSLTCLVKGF
Described as above.

Experiment [9] has as its target T7, MICv25-Fc.
T7 construct: also called MIC-v25 α1-α2 domain ligand
Described as above.

Experiment [10] addresses T1, ULBP1-Fc. The description is as above.
The target of experiment [11] is T2, MICB-Fc. Described as above.
Experiment [12] concerns the target T3, ULBP3-Fc. The experiment is described as above.
Experiment [13] has as its target T4, ULBP2-Fc. The experiment is described as above.
The target of experiment [14] is MICwed-Fc. The description is as above.
For experiment [15], the target named is T5, ULBP4-Fc. Briefly: ELISA: ligand-Fc coated at 2 ug/ml, biotinylated NKG2D Y152A, Y199A ectodomain titrated, streptavidin-HRP.
Experiment [16] has as its target T6, MICA-Fc. Described as above.
Experiment [17] addresses T7, MICv25-Fc. The experiment is described as above.
Experiment [18] deals with T1, ULBP1-Fc. The description is as above.
In experiment [19] the target is T2, MICB-Fc. Described as above.
Experiment [20] concerns the target T3, ULBP3-Fc. The description is as above.
Experiment [21] deals with T4, ULBP2-Fc. The experiment is described as above.
The target of experiment [22] is MICwed-Fc. The experiment is described as above.
Experiment [23] concerns the target T5, ULBP4-Fc. Briefly: ELISA: ligand-Fc coated at 2 ug/ml, biotinylated NKG2D Y152A ectodomain titrated, streptavidin-HRP.
For experiment [24], the target named is T6, MICA-Fc. Described as above.
For experiment [25], the target named is T1, ULBP1-Fc. The description is as above.
Experiment [26] has as its target T2, MICB-Fc. The description is as above.
Experiment [27] deals with T3, ULBP3-Fc. Described as above.
The target of experiment [28] is T4, ULBP2-Fc. The experiment is described as above.
The target of experiment [29] is MICwed-Fc. Described as above.
In a further experiment the target is T8, OMCP-α3-iFv.2.
T8 construct: also called NKG2DL-α3-iFv.2 (OMCP)
Briefly: ELISA: protein captured on FGFR3 detected with NKG2D-Fc.

This note sets out measurements from patent publication US20180134765A1 (AVIDBIOTICS, published 2018).

Residue numbers refer to the chain shown, from its start. In names and notes the source's numbering stands.

B1: His-avitag-natural NKG2D (receptor)
chain: EPHHHHHHGLNDIFEAQKIEWHENSLFNQEVQIPLTESYCGPCPKNWICYKNNCYQFFDESKNWYESQASCMSQNASLLKVYSKEDQDLLKLVKSYHWMGLVHIPTNGSWQWEDGSILSPNLLTIIEMQKGDCALYASSFKGYIENCSTPNTYICMQRTV
modifications: biotin on the avitag sequence (BirA)
notes: also called natural NKG2D ectodomain; wild type NKG2D
The term EC50 (read off the curve) denotes the concentration that produces a half-maximal response. For the molecule B1, the binding result in the experiment with ULBP1-Fc [1], in the experiment with MICB-Fc [2], in the experiment with ULBP3-Fc [3], with ULBP2-Fc [4] and with ULBP4-Fc [6] was “binds” throughout. The “EC50 (read off the curve)” value with MICwed-Fc [5] was about 100 nM.

B2: Y199A NKG2D ectodomain (receptor)
chain: B1 chain with Y143A
modifications: biotin on the avitag sequence (BirA)
notes: Expressed with His-avitag; also called non-natural NKG2D mutant Y199A
For B2, the binding result in the experiment with ULBP4-Fc [7], in the experiment with MICA-Fc [8], with MICv25-Fc [9], with ULBP1-Fc [10], with MICB-Fc [11] and in the experiment with ULBP3-Fc [12] was “no binding (tested: 2000 nM)” throughout. In addition, the binding result with ULBP2-Fc [13] and with MICwed-Fc [14] was “no binding (tested: 2000 nM)” throughout.

B3: Y152A plus Y199A NKG2D ectodomain (receptor)
chain: B1 chain with Y96A, Y143A
modifications: biotin on the avitag sequence (BirA)
notes: Expressed with His-avitag; also called non-natural NKG2D double mutant Y152A and Y199A
On to B3, for which the binding result with ULBP4-Fc [15], in the experiment with MICA-Fc [16], with MICv25-Fc [17], in the experiment with ULBP1-Fc [18], in the experiment with MICB-Fc [19] and in the experiment with ULBP3-Fc [20] was “no binding (tested: 2000 nM)” throughout. Further, the binding result with ULBP2-Fc [21] and in the experiment with MICwed-Fc [22] was “no binding (tested: 2000 nM)” throughout.

B4: Y152A NKG2D ectodomain (receptor)
chain: B1 chain with Y96A
modifications: biotin on the avitag sequence (BirA)
notes: Expressed with His-avitag; also called non-natural NKG2D mutant Y152A; Y152A mutant NKG2D ectodomain
Regarding B4, the binding result with ULBP4-Fc [23], in the experiment with MICA-Fc [24], with ULBP1-Fc [25], in the experiment with MICB-Fc [26], with ULBP3-Fc [27] and in the experiment with ULBP2-Fc [28] was “no binding (tested: 2000 nM)” in each case. Further, the binding result with MICwed-Fc [29] is on record as “no binding (tested: 2000 nM)”.

B5: human NKG2D-Fc (Fc fusion)
chain: FLNSLFNQEVQIPLTESYCGPCPKNWICYKNNCYQFFDESKNWYESQASCMSQNASLLKVYSKEDQDLLKLVKSYHWMGLVHIPTNGSWQWEDGSILSPNLLTIIEMQKGDCALYASSFKGYIENCSTPNTYICMQRTV
notes: also called natural NKG2D-Fc; not shown: Fc part
For B5, in the experiment with OMCP-α3-iFv.2, the binding result is “binds”.
